The text below walks through data of publication PMC3518436.

For this assay, the target named is beclin 1 (UniProt O88597). Description: anti-BCL2 IP, beclin 1 blot. As to conditions: sites T69,S70,S84.

As for “BCL2 (from UniProt P10417) BCL2 AAA MEFs, starved”, the “binding against the reference” value (reference: wild-type MEFs, starved) is “stronger”.

“BCL2 (from UniProt P10417) BCL2 AAA muscle, exercised”: the “binding against the reference” value (reference: wild-type muscle, exercised) is reported as “stronger”.
